± gives the standard deviation of the averaged measurements.
B1: library; a variant is named by its letters at N, in order (parent)
chain: GCUGUCACCGGUGCUUGGUACGUUAUAUUCAGCCGGUCUGAUGAGUCUNNNNNNAGACGAAACAGC

Key:
(6R,S)-folinic acid [1] = variants of: B1; assay: normalized RNA/DNA level without ligand (relative to sTRSVctl = 100) (log10 (% of sTRSVctl)); HEK293T overexpressing SLC46A1; higher = less ribozyme self-cleavage, higher mRNA level; conditions: without (6R,S)-folinic acid; ligand present: no
Method in brief: (§1)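 Library plasmids carrying ribozyme switches linked to mCherry, or to eGFP in some ligand experiments, were transfected into HEK293T at 4 µg per 6-well well, with any ligand added 1 h earlier. Seventy-two hours on, total RNA was extracted with EDTA and reverse-transcribed, amplified, barcoded and sequenced. RNA level was RNA over DNA reads normalized to a spiked-in non-cleaving sequence or to the top sequences, then scaled and log-transformed. The top set was 25 sequences, the transform was ×100 and log10, and sequences needed ≥100 DNA reads.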

(6R,S)-folinic acid [2] = variants of: B1; assay: normalized RNA/DNA level with ligand (relative to sTRSVctl = 100) (log10 (% of sTRSVctl)); HEK293T overexpressing SLC46A1; ligand concentration (+) RNA-Seq: 6 mM; higher = less ribozyme self-cleavage, higher mRNA level; conditions: with (6R,S)-folinic acid; ligand present: yes
Method in brief: as §1

Variant	normalized RNA/DNA level without ligand (log10) ((6R,S)-folinic acid [1])	normalized RNA/DNA level with ligand (log10) ((6R,S)-folinic acid [2])
CUUACG	2.007 ± 0.0022	2 ± 0.037
GUUACG	1.988 ± 0.012	2.02 ± 0.034
UUUACG	1.859 ± 0.0091	1.98 ± 0.03
AUUACU	2.042 ± 0.012	2.04 ± 0.031
CUUACU	2 ± 0.023	2.02 ± 0.047
GUUACU	2.03 ± 0.027	2.03 ± 0.037
CUUAGA	2.03 ± 0.01	2.04 ± 0.029
GUUAGA	2 ± 0.02	2.021 ± 0.0089
UUUAGA	1.99 ± 0.02	2.03 ± 0.025
AUUAGC	1.987 ± 0.0093	2.021 ± 0.0097
CUUAGC	2.008 ± 0.019	2.01 ± 0.08
GUUAGC	1.92 ± 0.025	1.99 ± 0.02
UUUAGC	1.998 ± 0.005	2 ± 0.044
CUUAGG	2.041 ± 0.018	2.052 ± 0.014
UUUAGG	1.879 ± 0.012	2 ± 0.045
AUUAGU	1.95 ± 0.028	2.01 ± 0.028
CUUAGU	2.01 ± 0.0085	2.014 ± 0.0092
GUUAGU	1.979 ± 0.0095	2.03 ± 0.044
UUUAGU	1.957 ± 0.0051	1.99 ± 0.015
AUUAUA	1.9581 ± 0.0013	1.97 ± 0.025
CUUAUA	1.961 ± 0.019	2 ± 0.029

Variant	normalized RNA/DNA level without ligand (log10) ((6R,S)-folinic acid [1])	normalized RNA/DNA level with ligand (log10) ((6R,S)-folinic acid [2])
UUUAUA	1.993 ± 0.015	2 ± 0.03
AUUAUC	2.062 ± 0.01	2.03 ± 0.022
CUUAUC	2.089 ± 0.009	2.08 ± 0.033
GUUAUC	2.027 ± 0.012	2.044 ± 0.0079
UUUAUC	2.103 ± 0.0028	2.065 ± 0.016
AUUAUG	1.94 ± 0.021	2.02 ± 0.033
CUUAUG	2.013 ± 0.005	2.0211 ± 0.00067
GUUAUU	2.016 ± 0.0067	2.007 ± 0.02
UUUAUU	1.988 ± 0.0096	2.03 ± 0.033
AUUCAA	1.9988 ± 0.0016	2.01 ± 0.029
CUUCAA	2.023 ± 0.0088	2.05 ± 0.042
UUUCAA	1.997 ± 0.0084	2.01 ± 0.029
AUUCAC	2.04 ± 0.0098	1.994 ± 0.019
CUUCAC	2.027 ± 0.0051	1.988 ± 0.011
UUUCAC	2.0237 ± 0.0014	2.0028 ± 0.00095
CUUCAG	2.027 ± 0.015	2.099 ± 0.011
GUUCAG	1.963 ± 0.0042	2 ± 0.043
AUUCAU	2 ± 0.026	2.0232 ± 0.0017
CUUCAU	2 ± 0.0049	1.99 ± 0.037
GUUCAU	2.019 ± 0.0083	2.02 ± 0.034
UUUCAU	1.993 ± 0.0093	2.02 ± 0.022

Variant	normalized RNA/DNA level without ligand (log10) ((6R,S)-folinic acid [1])	normalized RNA/DNA level with ligand (log10) ((6R,S)-folinic acid [2])
AUUCCA	2.009 ± 0.0091	2.02 ± 0.047
CUUCCA	2.023 ± 0.014	2.02 ± 0.037
UUUCCA	2.009 ± 0.0042	2.01 ± 0.027
AUUCCC	2.018 ± 0.019	1.99 ± 0.052
CUUCCC	2.01 ± 0.03	2.002 ± 0.007
GUUCCC	2.075 ± 0.018	2.052 ± 0.017
UUUCCC	2.043 ± 0.0052	2.02 ± 0.075
AUUCCG	1.997 ± 0.0068	2.037 ± 0.018
CUUCCG	2.05 ± 0.029	2.06 ± 0.046
GUUCCG	2.032 ± 0.011	2.02 ± 0.04
AUUCCU	2.044 ± 0.0048	2.047 ± 0.018
CUUCCU	1.996 ± 0.0085	2.02 ± 0.059
GUUCCU	2.03 ± 0.0037	2.04 ± 0.045
UUUCCU	2.0566 ± 0.0006	2.058 ± 0.018
AUUCGA	1.992 ± 0.0073	2.03 ± 0.035
CUUCGA	2.053 ± 0.0024	2.06 ± 0.038
GUUCGA	2.018 ± 0.0029	2.001 ± 0.015
UUUCGA	2.0498 ± 0.00034	2.04 ± 0.024
AUUCGC	2.039 ± 0.0092	2.06 ± 0.041

— the supplement of paper PMC6757056
